This note sets out measurements from paper PMC7602980 (Biomolecules, 2020).

B1: Cx43CL_(136-158) M147T peptide (peptide)
peptide: KYGIEEHGKVKTRGGLLRTYIIS
notes: connexin43 (Cx43) cytoplasmic loop, residues K136-S158, with the ODDD mutation M147T; ODDD-linked mutation that occurs in patients; No species is named for the synthetic peptides; source: synthetic peptide (LifeTein, 95% purity)
B2: Cx43CL_(136-158) R148Q peptide (peptide)
peptide: KYGIEEHGKVKMQGGLLRTYIIS
notes: connexin43 (Cx43) cytoplasmic loop, residues K136-S158, with the ODDD mutation R148Q; ODDD-linked mutation that occurs in patients; No species is named for the synthetic peptides; source: synthetic peptide (LifeTein, 95% purity)
B3: Cx43CL_(136-158) T154A peptide (peptide)
peptide: KYGIEEHGKVKMRGGLLRAYIIS
notes: connexin43 (Cx43) cytoplasmic loop, residues K136-S158, with the ODDD mutation T154A; ODDD-linked mutation that occurs in patients; No species is named for the synthetic peptides; source: synthetic peptide (LifeTein, 95% purity)

This assay deals with T1, calmodulin (UniProt P0DP23 1-149).
T1 construct: calmodulin (CaM); Used 15N-labeled or unlabeled; also called CaM; source: expressed (cloned in pAED4 vector)
The assay is described as follows: NMR titration; 15N-HSQC; 15N-labeled CaM at a constant concentration (30–100 μM), unlabeled ligand added (7.5 to 400 μM); KD by nonlinear fitting of chemical shift changes, average of at least six curves. As to conditions: both partners purified.
Turning to B1, the binding result is given as “binds”.

For the molecule B2, the binding result is listed as “binds”. The value for B3 was “binds”.
